Measured values: US20160031942A1 (LONDON HEALTH SCIENCES CENTRE RESEARCH, published 2016)
Blank lines part the entries; values can stand above or below the binder they belong to. Square brackets hold non-standard residues; d marks the D form. Ends that are not written are not given here. * marks the point of attachment. FITC = O=C1OC2(c3ccc(O)cc3Oc3cc(O)ccc32)c2ccc(NC(=S)*)cc21; Ahx = NCCCCCC(=O)O

Key:
[1] = target: T1, Recombinant protein RHAMM-CT (truncated RHAMM, carboxy terminus containing the HA binding domain, amino acids … (Mus musculus (Mouse), UniProt Q00547 706-766)); assay: SPR screening (ProteON XPR36), RHAMM immobilised, peptide at 10 µM
T1 construct: Expressed in E. coli BL21 from pPAL7-RHAMM as eXact-tagged protein and purified on Profinity eXact resin (fluoride elution); M.W. 7.1 kDa, pI 10.1; also called recombinant RHAMM
T1 sequence: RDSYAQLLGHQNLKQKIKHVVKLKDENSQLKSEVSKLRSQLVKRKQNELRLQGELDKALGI
Description: ProteON XPR36 system was used for the selection and ranking of different tubulin derived peptides against RHAMM. For immobilization of RHAMM, the ProteON GLC sensor chip surfaces were activated by amine coupling using 100 mM EDAC and 24 mM sulfo-NHS. RHAMM (30 μg/mL in sodium bicarbonate buffer, pH 9.7) was injected at a flow a rate of 30 μl/min. A buffer sample was injected on a different sensor plate for use as a reference. Ethanolamine HCl (1M, pH 8.5) was then injected to deactivate any remaining surface groups. Peptides (10 μM in PBS-T, 2% DMSO) were injected to a RHAMM functionalized surface at 50 μL/min for 3 minutes followed by a 10 minute dissociation (i.e. injection of PBS-T buffer) period. The surfaces were regenerated using two injections of 30 μL of 1M NaCl prior to the injection of the next peptide. In all experiments, reference subtraction was performed using data obtained from reference plate (No RHAMM) and RHAMM functionalized plate.
After immobilization of RHAMM on the SPR sensor chip, injection of a series of tubulin derived peptides was carried out. Association of the peptides with RHAMM proceeded for 3 minutes and the dissociation in analyte free buffer was carried out for 10 minutes. […]

[2] = target: T2, Recombinant protein RHAMM-CT (truncated RHAMM, carboxy terminus containing the HA binding domain, amino acids … (UniProt Q00547 706-766)); assay: SPR
T2 chain: T1 sequence

[3] = target: T1, Recombinant protein RHAMM-CT (truncated …); assay: SPR (GWC SPRimager II), thiol-containing peptide immobilised on maleimide chip, RHAMM injected at 500, 750, 1000 nM, 1:1 Langmuir fit
Description: After peptide screening, GWC SPRimager®II system was used to determine binding kinetic constants. Thiol-containing peptides at 1 nM concentration in milliQ water were immobilized on a maleimide-functionalized gold-plated chip for 3 hours. Excess peptides were removed by washing with milliQ water. For binding studies, a series of concentrations (500 nM, 750 nM, and 1000 nM) of RHAMM were injected over the immobilized peptides. After a 15 min dissociation phase, the sensor chip surface was regenerated for the next peptide sample injection, via treatment with two 10 min pulse injections of regenerating buffer (2 M NaCl in HBS-EP, pH 7.4) at […]. Baseline returned to the initial value after the regeneration step, confirming the removal of all bound analytes. Data were analyzed and the corresponding dissociation constants (KD) were obtained via non-linear regression fitting to a Langmuir binding model. In all experiments, reference subtraction was performed using data obtained from reference plate (no peptide) and peptide functionalized plate.

[4] = target: T1, Recombinant protein RHAMM-CT (truncated …); assay: solid phase peptide binding assay (ELISA), immobilised RHAMM
[5] = target: T2, Recombinant protein RHAMM-CT (truncated …); assay: SPR; RHAMM 750 nM
[6] = target: T2, Recombinant protein RHAMM-CT (truncated …); assay: SPR; RHAMM 1000 nM
[7] = target: T3, RHAMM (Receptor for Hyaluronic Acid Mediated Motility, CD168) expressed on human cancer cells (human, UniProt O75330 1-724); assay: cell-based or functional assay
T3 sequence (looked up): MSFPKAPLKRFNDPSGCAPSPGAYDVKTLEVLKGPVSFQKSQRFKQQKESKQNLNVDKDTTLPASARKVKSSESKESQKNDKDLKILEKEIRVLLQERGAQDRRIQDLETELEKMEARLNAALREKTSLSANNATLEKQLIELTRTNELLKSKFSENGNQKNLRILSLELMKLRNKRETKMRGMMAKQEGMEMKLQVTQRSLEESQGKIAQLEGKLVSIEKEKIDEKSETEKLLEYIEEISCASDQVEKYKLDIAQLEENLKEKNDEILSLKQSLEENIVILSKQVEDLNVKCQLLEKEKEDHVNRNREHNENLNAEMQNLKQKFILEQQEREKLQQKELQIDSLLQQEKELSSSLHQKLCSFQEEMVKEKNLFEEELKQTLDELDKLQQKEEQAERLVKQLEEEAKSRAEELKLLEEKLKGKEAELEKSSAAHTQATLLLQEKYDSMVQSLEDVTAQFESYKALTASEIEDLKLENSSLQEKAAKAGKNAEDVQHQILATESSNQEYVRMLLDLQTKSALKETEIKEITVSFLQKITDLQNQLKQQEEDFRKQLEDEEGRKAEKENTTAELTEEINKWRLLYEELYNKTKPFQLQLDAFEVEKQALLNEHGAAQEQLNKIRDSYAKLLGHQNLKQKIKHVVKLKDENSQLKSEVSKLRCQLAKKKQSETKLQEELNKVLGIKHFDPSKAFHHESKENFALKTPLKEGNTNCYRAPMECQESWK

[8] = target: T1, Recombinant protein RHAMM-CT (truncated …); assay: ELISA, fluorescein-labelled peptide on immobilised RHAMM
Description: ELISA was carried out to test the ability of FITC-labelled tubulin-derived peptides compete with HA for binding site with RHAMM. Recombinant RHAMM (100 μL, 10 μg/mL in 0.05M PBS, pH=9) was immobilized on 96-well ELISA plates (final concentration of 1 μg/well) and incubated overnight at 4° C. resulting in final amount of protein 1 μg/well. Plates were washed three times with (0.05%) PBS-Tween-20 buffer (200 μL/well), washed with blocking buffer (5% 200 μL/well, PBS-Tween-20 per well), and incubated for 1 hour at room temperature. Following three washes as described above, FITC-labeled tubulin derived peptides (final concentration of 1 μg/mL) and HA (100 μL/well, M.W. 220 kDa, 10 μg/mL in PBS, serial dilutions have been made for HA=1:1, 1:2, 1:4, 1:8, 1:16) were added to plates and incubated overnight at 4° C. Plates were washed as described above, and absorbance was measured at 485/535 nm.
A competitive ELISA was done to determine the selectivity of the peptides to the HA binding domain of RHAMM. In this assay, fluorescein-labelled peptides were used and the effectiveness of unlabelled HA to block the binding of peptides to RHAMM was evaluated. Fluorescein-labelled peptides SEQ ID NOs: 1, 3, 9, 11, 12 and 14, corresponding to peptides 1c, 3c, 9c, 11c, 12c and 14c in FIG. 2B (SEQ ID NOs: 25, 27, 29, 31, 33 and 35) were added to ELISA plates containing immobilized RHAMM, followed by the addition of varying concentration of HA, which is the natural ligand of RHAMM. A decrease in observed fluorescence is seen as HA displaces the fluorescein-labelled peptides if they compete for the same binding site.

binding result [1]: binds
Kd [2]: 30 nM
B1: peptide 14a (SEQ ID NO: 14), unmodified tubulin-derived peptide, sequence directly flanking beta-IIIa CTT (peptide)
peptide: FTEAESNMNDLV-NH2
notes: Synthetic 12-mer made on Rink amide MBHA resin

Kd [3]: 24 nM
Binder: Ac-C[Ahx]VEGEGEEEGEEY-NH2 [peptide 1b (SEQ ID NO: 24), SEQ ID NO: 1 with N-acetyl cysteine modified N-terminus]

binding result [4]: binds
Binder: {FITC-Ahx}-EAFEDEEEEIDG-NH2 [peptide 12c (SEQ ID NO: 33), fluorescein-conjugated SEQ ID NO: 12]

Kd [5]: 29 nM
Kd [6]: 31.9 nM
Kd [3]: 30 nM
Binder: Ac-C[Ahx]FTEAESNMNDLV-NH2 [peptide 14b (SEQ ID NO: 34), SEQ ID NO: 14 with N-acetyl cysteine modified N-terminus]

binding result [4]: binds
Binder: {FITC-Ahx}-SVEAEAEEGEEY-NH2 [peptide 3c (SEQ ID NO: 27), fluorescein-conjugated SEQ ID NO: 3]

reduction in cellular fluorescence (uptake in MDA-MB-231 cells) when cells are blocked with anti-RHAMM mAb [7]: ~65%
binding result [8]: binds
Binder: {FITC-Ahx}-FTEAESNMNDLV-NH2 [peptide 14c (SEQ ID NO: 35), fluorescein-conjugated SEQ ID NO: 14]

binding result [4]: binds
Binder: {FITC-Ahx}-GEFEEEAEEEVA-NH2 [peptide 11c (SEQ ID NO: 31), fluorescein-conjugated SEQ ID NO: 11]

reduction in cellular fluorescence (uptake in MDA-MB-231 cells) when cells are blocked with anti-RHAMM mAb [7]: ~85%
binding result [8]: binds
Binder: {FITC-Ahx}-VEGEGEEEGEEY-NH2 [peptide 1c (SEQ ID NO: 25), fluorescein-conjugated SEQ ID NO: 1]

Kd [5]: 33.8 nM
Kd [3]: 32 nM
Binder: Ac-C[Ahx]EEDFGEEAEEEA-NH2 [peptide 9b (SEQ ID NO: 28), SEQ ID NO: 9 with N-acetyl cysteine modified N-terminus]

reduction in cellular fluorescence (uptake in MDA-MB-231 cells) when cells are blocked with anti-RHAMM mAb [7]: ~76%
binding result [8]: binds
B2: peptide 9c (SEQ ID NO: 29), fluorescein-conjugated SEQ ID NO: 9 (peptide)
peptide: {FITC}-[Ahx]EEDFGEEAEEEA-NH2
notes: also called fluorescein-conjugated HA mimetic
